In PMC6537586 one finds degradation_or_half_life data, which are given here for 1 substance.

For this data set the following is noted: ubiquitination at K571.

ELL2: K571R: the degradation_or_half_life result is “no change, half-life less than 6 h”.
